The assay concerns the target Recombinant hemagglutinin-tagged full-length CSB (human, UniProt Q03468 1-1493). Briefly: pull-down; ΔN-SNM1A (500 ng) with or without HA-CSB (500 ng) and α-HA magnetic beads; 20 mM HEPES pH 7.9, 4 mM MgCl2, 0.05 mM ATP, 40 μg/ml BSA, 1 mM DTT, 4°C, 2 h; silver stain. To be noted: both partners purified.

Chain of Recombinant hemagglutinin-tagged full-length CSB (Q03468 whole entry): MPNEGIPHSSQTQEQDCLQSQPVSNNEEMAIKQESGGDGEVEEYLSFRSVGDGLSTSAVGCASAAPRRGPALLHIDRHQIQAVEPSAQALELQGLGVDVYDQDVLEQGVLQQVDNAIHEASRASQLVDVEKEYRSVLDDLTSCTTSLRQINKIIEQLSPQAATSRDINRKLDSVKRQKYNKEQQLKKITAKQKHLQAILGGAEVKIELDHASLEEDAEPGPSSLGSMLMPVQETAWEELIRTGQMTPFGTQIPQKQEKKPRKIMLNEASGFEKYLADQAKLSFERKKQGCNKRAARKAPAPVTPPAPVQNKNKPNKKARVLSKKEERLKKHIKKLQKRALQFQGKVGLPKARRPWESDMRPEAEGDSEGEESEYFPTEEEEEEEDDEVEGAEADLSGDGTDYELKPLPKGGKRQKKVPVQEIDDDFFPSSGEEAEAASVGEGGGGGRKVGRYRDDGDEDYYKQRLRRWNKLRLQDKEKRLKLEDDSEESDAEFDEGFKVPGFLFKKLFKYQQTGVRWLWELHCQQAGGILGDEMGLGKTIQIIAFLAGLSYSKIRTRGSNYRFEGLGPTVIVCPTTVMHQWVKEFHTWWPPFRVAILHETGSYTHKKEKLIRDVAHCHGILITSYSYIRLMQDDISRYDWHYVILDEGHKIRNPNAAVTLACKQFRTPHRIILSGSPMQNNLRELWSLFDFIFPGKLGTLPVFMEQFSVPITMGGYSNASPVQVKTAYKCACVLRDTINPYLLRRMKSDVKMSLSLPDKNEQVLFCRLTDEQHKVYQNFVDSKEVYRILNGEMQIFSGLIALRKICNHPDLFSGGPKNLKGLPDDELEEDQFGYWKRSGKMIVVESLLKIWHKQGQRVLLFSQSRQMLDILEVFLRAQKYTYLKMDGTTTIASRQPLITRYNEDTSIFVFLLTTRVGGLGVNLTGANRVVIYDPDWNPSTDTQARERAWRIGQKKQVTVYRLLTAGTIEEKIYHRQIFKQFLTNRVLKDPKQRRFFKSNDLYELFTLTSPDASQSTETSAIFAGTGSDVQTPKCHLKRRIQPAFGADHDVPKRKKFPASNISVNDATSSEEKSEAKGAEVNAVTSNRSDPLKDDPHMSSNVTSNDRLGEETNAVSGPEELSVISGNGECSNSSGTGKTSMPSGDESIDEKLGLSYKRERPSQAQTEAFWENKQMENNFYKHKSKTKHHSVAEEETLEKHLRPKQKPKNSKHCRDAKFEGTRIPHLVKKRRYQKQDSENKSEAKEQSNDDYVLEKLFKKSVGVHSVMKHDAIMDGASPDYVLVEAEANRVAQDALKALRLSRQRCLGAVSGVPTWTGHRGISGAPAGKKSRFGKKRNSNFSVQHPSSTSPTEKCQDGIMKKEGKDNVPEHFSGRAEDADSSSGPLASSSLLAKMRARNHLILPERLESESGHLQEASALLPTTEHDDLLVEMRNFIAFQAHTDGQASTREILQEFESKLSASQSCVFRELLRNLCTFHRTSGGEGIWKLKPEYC

B1: SNM1A nuclease fragment consisting of residues 608 to 1040 (domain or fragment, human, UniProt Q6PJP8 608-1040, looked up)
chain: SDLEFDASTLHESQLSVELSSERSQRQKKRCRKSNSLQEGACQKRSDHLINTESEAVNLSKVKVFTKSAHGGLQRGNKKIPESSNVGGSRKKTCPFYKKIPGTGFTVDAFQYGVVEGCTAYFLTHFHSDHYAGLSKHFTFPVYCSEITGNLLKNKLHVQEQYIHPLPLDTECIVNGVKVVLLDANHCPGAVMILFYLPNGTVILHTGDFRADPSMERSLLADQKVHMLYLDTTYCSPEYTFPSQQEVIRFAINTAFEAVTLNPHALVVCGTYSIGKEKVFLAIADVLGSKVGMSQEKYKTLQCLNIPEINSLITTDMCSSLVHLLPMMQINFKGLQSHLKKCGGKYNQILAFRPTGWTHSNKFTRIADVIPQTKGNISIYGIPYSEHSSYLEMKRFVQWLKPQKIIPTVNVGTWKSRSTMEKYFREWKLEAGY
Consider B1, for which the binding result is “binds”.

The values above are taken from article PMC4288174 (Nucleic Acids Research, 2014).
